Source: US20150266963A1 (ARGEN X B V, published 2015)

Tests used:
[1] = target: T1, human CD70 expressed on the surface of cells (human, UniProt P32970 1-193); test: FACS MFI at 37 C, A549 cells; reference SGN70
T1 construct: whole, on cells; also called cell surface expressed CD70; CD70 on cells
T1 sequence (looked up): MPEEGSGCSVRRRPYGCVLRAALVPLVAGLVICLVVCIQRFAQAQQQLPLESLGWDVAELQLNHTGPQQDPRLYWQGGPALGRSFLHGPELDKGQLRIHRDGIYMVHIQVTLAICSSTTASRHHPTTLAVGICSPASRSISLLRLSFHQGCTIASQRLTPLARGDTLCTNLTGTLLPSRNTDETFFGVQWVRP
Description: (§1) Several cancer cell lines were tested by FACS analysis for binding of ARGX-110 and SGN70 (described in US2010/0129362) at saturating mAb concentrations (at least 2 μg/ml). This was either done at 4° C. (1 hour incubation of cells with mAbs) or at 37° C. (15 minutes incubation of cells with mAbs). Binding was detected using anti-hIgG1-Fc-FITC (AF006, Binding Site) or anti-hIgG1-Fc-PE antibody (eBioscience, 12-4998). Fluorescence was measured using a flow cytometer.

[2] = target: T1, human CD70 expressed on the surface of …; test: FACS MFI at 37 C, 786-O cells; reference SGN70
Description: as §1

[3] = target: T2, recombinant human CD70 (Flag-TNC-CD70) (human, UniProt P32970 39-193); test: ELISA; Flag-TNC-CD70 captured by anti-Flag mAb; anti-human-Fc-HRP
T2 construct: extracellular domain; Captured by anti-Flag mAb in ELISA; as 'recombinant human CD70' immobilised on Biacore CM5 chips; TNC is for trimerisation; also called recombinant CD70; human recombinant CD70; not shown: Flag tag and TNC trimerisation domain
T2 sequence (looked up): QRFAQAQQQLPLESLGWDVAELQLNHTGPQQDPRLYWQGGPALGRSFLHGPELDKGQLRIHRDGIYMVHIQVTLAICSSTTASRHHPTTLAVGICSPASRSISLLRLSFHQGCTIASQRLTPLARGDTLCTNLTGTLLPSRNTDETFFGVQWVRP
Description: (§2) A Maxisorb (Nunc) microtiter plate was coated with 3.5 μg/ml mouse M2 anti-Flag mAb (Sigma Aldrich, F3165) and the different chimeras were captured. A dilution series of the CD70 mAbs to be tested was applied starting at a concentration of 10 μg/ml and making 3-fold dilutions. After 2 hours, binding was detected using anti-human-Fc-HRP at a 16000-fold dilution. Staining was done with ABTS and OD at 405 nm was measured. As a positive control, CD27-Fc was applied which is able to bind to both human and mouse CD70 with good affinity as well as to the chimeric human-mouse CD70 variants.

[4] = target: T3, human-mouse CD70 chimera chim-2.2 (Flag-TNC-CD70); test: ELISA; chimera captured by anti-Flag mAb; anti-human-Fc-HRP
T3 construct: also called chimera 2.2; not shown: N-terminal Flag tag, TNC trimerisation domain and any linkers of the Flag-TNC-CD70 construct
T3 chain: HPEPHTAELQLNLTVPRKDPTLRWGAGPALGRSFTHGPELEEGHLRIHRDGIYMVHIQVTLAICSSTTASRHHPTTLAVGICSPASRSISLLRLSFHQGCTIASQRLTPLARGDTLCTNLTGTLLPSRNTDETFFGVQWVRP
Description: as §2

[5] = target: T4, human-mouse CD70 chimera chim-2.3 (Flag-TNC-CD70); test: as above
T4 construct: also called chimera 2.3
T4 chain: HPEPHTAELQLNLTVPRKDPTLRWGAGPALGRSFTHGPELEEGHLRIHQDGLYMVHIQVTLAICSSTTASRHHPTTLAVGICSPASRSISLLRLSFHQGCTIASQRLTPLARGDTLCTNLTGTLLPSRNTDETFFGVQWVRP
Description: as §2

[6] = target: T5, human-mouse CD70 chimera chim-2.1 (Flag-TNC-CD70) (Soluble homotrimer held by the TNC domain; one CD70 ECD chain is given.); test: as above
T5 construct: also called chimera 2.1; not shown: N-terminal Flag tag, TNC (tenascin-C) trimerisation domain and any linkers of the Flag-TNC-CD70 construct
T5 chain: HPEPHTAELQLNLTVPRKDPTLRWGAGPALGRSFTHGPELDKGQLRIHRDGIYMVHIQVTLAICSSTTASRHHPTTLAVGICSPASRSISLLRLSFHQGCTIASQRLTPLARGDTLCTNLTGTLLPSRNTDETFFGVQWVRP
Description: as §2

[7] = target: T6, human-mouse CD70 chimera chim-1 (Flag-TNC-CD70) (Homo sapiens (Human), UniProt P32970 58-193, Soluble homotrimer held by the TNC domain; one CD70 ECD chain is given.); test: as above
T6 construct: also called chimera 1; not shown: N-terminal Flag tag, TNC (tenascin-C) trimerisation domain and any linkers of the Flag-TNC-CD70 construct
T6 chain: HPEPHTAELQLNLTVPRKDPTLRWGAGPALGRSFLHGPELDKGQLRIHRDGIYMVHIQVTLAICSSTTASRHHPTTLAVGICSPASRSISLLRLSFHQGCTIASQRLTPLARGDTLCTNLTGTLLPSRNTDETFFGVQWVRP
Description: as §2

[8] = target: T7, human-mouse CD70 chimera chim-2.4 (Flag-TNC-CD70); test: as above
T7 construct: also called chimera 2.4
T7 chain: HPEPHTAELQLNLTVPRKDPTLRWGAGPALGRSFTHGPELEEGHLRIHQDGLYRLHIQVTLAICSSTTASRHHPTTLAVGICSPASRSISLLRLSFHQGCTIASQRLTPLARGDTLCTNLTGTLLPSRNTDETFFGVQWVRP
Description: as §2

Signal in FACS of ARGX-110/signal in FACS of SGN70 [1]: 3.8 ratio
Signal in FACS of ARGX-110/signal in FACS of SGN70 [2]: 2.1 ratio
EC50 [3]: 0.022 mg/L
EC50 [4]: 0.016 mg/L
EC50 [5]: 0.015 mg/L
EC50 [6]: 0.015 mg/L
EC50 [7]: 0.027 mg/L
EC50 [8]: 0.014 mg/L
B1: ARGX-110 (non-fucosylated 41D12 human IgG1) (antibody, V domains shown)
VH: EVQLVESGGGLVQPGGSLRLSCAASGFTFSVYYMNWVRQAPGKGLEWVSDINNEGGTTYYADSVKGRFTISRDNSKNSLYLQMNSLRAEDTAVYYCARDAGYSNHVPIFDSWGQGTLVTVSS
VL: QAVVTQEPSLTVSPGGTVTLTCGLKSGSVTSDNFPTWYQQTPGQAPRLLIYNTNTRHSGVPDRFSGSILGNKAALTITGAQADDEAEYFCALFISNPSVEFGGGTQLTVLG
notes: also called 41D12 (ARGX-110)
